Legend:
[1] = target: T1, BSA-coupled (GA)15 DPR protein peptide (bovine, conjugated via a bifunctional linker (SMCC) to bovine serum albumin); assay: indirect ELISA, BSA-coupled peptide coated, antibody titrated [also D00013 FIG. 3E]
T1 construct: also called BSA-(GA)15
Protocol: (§1) In brief, dipeptide repeat proteins were synthesized and purified by Schafer-N(Copenhagen, Denmark): (GA)₁₅: H-CHHHHHH(GA)₁₅-OH; (GP)₁₅: H-C(GP)₁₅-OH; (GR)₁₅: H-C(GR)₁₅-OH; (PA)₁₅: H-C(PA)₁₅-OH; (PR)₁₅: H—C(PR)₁₅-OH. DPR protein peptides were then conjugated via a bifunctional linker (SMCC) to bovine serum albumin (BSA). 96-well microplates (Corning Incorporated, Corning, USA) were coated with BSA-coupled or -uncoupled dipeptide repeat protein peptides at a concentration of either 5 μg/ml or 20 μg/ml in coating buffer (15 mM Na₂CO₃, 35 mM NaHCO₃, pH 9.42). Non-specific binding sites were blocked for 1 h at room temperature with PBS/0.1% Tween®-20 containing 2% BSA (Sigma-Aldrich, Buchs, Switzerland). Primary antibodies were diluted to the indicated concentrations and incubated 1 h at room temperature, followed by incubation with a donkey anti-human IgG Fcγ-specific antibody conjugated with HRP (Jackson ImmunoResearch Laboratories, Inc., West Grove, USA). Binding was determined by measurement of HRP activity in a standard colorimetric assay. EC₅₀ values were estimated by non-linear regression using GraphPad Prism software (San Diego, USA).

[2] = target: T2, BSA-coupled (GP)15 DPR protein peptide (bovine, conjugated via a bifunctional linker (SMCC) to bovine serum albumin); assay: indirect ELISA, BSA-coupled peptide coated, antibody titrated [also D00014 FIG. 3H]
T2 construct: also called BSA-(GP)15
T2 sequence (peptide, as listed by the source limits assumed, chain 1 of 2): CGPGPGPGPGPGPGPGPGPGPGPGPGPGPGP
T2 sequence (P02769 25-607 limits assumed, chain 2 of 2): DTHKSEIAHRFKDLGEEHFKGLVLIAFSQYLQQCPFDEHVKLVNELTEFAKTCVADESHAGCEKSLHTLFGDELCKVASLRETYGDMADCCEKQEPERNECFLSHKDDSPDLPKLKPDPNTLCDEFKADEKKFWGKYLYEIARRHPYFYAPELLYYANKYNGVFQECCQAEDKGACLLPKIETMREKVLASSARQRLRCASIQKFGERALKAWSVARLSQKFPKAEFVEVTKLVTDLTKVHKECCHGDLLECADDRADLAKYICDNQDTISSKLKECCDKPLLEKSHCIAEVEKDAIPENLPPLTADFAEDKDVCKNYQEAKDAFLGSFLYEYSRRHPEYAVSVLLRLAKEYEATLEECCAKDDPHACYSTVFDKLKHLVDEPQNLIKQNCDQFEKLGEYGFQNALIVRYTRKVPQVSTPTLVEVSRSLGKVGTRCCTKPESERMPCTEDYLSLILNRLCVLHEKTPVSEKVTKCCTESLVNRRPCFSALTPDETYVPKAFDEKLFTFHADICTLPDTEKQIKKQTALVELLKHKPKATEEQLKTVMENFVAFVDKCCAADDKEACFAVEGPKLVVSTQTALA
Protocol: as §1

PA3: H-(PA)3HHHHHH-NH2 = target: T3, PA3: H-(PA)3HHHHHH-NH2; assay: indirect ELISA, His-tagged peptide coated at 50 ug/ml, antibody titrated [also D00028 FIG. 7P]
T3 peptide: H-PAPAPAHHHHHH-NH2
Protocol: as §1, with “96-well” for “In brief, dipeptide repeat proteins were synthesized and purified by Schafer-N(Copenhagen, Denmark): (GA)₁₅: H-CHHHHHH(GA)₁₅-OH; (GP)₁₅: H-C(GP)₁₅-OH; (GR)₁₅: H-C(GR)₁₅-OH; (PA)₁₅: H-C(PA)₁₅-OH; (PR)₁₅: H—C(PR)₁₅-OH. DPR protein peptides were then conjugated via a bifunctional linker (SMCC) to bovine serum albumin (BSA). 96-well”, “with” for “with BSA-coupled or -uncoupled”, “50” for “either 5 μg/ml or 20”
(§2) High affinity binding was detected for poly-GA DPRs harboring 10 or 20 (GA)-repeats, reflected in an EC₅₀ in the subnanomolar or low nanomolar range (FIGS. 7A, 7C-7I).

PA4: H-(PA)4HHHHHH-NH2 = target: T4, PA4: H-(PA)4HHHHHH-NH2; assay: as above
T4 peptide: H-PAPAPAPAHHHHHH-NH2
Protocol: as §1, with “96-well” for “In brief, dipeptide repeat proteins were synthesized and purified by Schafer-N(Copenhagen, Denmark): (GA)₁₅: H-CHHHHHH(GA)₁₅-OH; (GP)₁₅: H-C(GP)₁₅-OH; (GR)₁₅: H-C(GR)₁₅-OH; (PA)₁₅: H-C(PA)₁₅-OH; (PR)₁₅: H—C(PR)₁₅-OH. DPR protein peptides were then conjugated via a bifunctional linker (SMCC) to bovine serum albumin (BSA). 96-well”, “with” for “with BSA-coupled or -uncoupled”, “50” for “either 5 μg/ml or 20”
as §2

PA2: H-(PA)2HHHHHH-NH2 = target: T5, PA2: H-(PA)2HHHHHH-NH2; assay: as above
T5 peptide: H-PAPAHHHHHH-NH2
Protocol: as §1, with “96-well” for “In brief, dipeptide repeat proteins were synthesized and purified by Schafer-N(Copenhagen, Denmark): (GA)₁₅: H-CHHHHHH(GA)₁₅-OH; (GP)₁₅: H-C(GP)₁₅-OH; (GR)₁₅: H-C(GR)₁₅-OH; (PA)₁₅: H-C(PA)₁₅-OH; (PR)₁₅: H—C(PR)₁₅-OH. DPR protein peptides were then conjugated via a bifunctional linker (SMCC) to bovine serum albumin (BSA). 96-well”, “with” for “with BSA-coupled or -uncoupled”, “50” for “either 5 μg/ml or 20”
as §2

[3] = target: T6, BSA-coupled (PA)15 DPR protein peptide (bovine, UniProt P02769 25-607, conjugated via a bifunctional linker (SMCC) to bovine serum albumin); assay: indirect ELISA, BSA-coupled peptide coated, antibody titrated [also D00015 FIG. 3K]
T6 construct: also called BSA-(PA)15
T6 sequence (peptide, as listed by the source limits assumed, chain 1 of 2): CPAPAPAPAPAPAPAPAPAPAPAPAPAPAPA
T6 sequence (P02769 25-607 limits assumed, chain 2 of 2): as the sequence (P02769 25-607 limits assumed, chain 2 of 2) above
Protocol: as §1

PR5: H-(PR)5HHHHHH-NH2 = target: T7, PR5: H-(PR)5HHHHHH-NH2; assay: indirect ELISA, His-tagged peptide coated at 50 ug/ml, antibody titrated [also D00027 FIG. 7O]
T7 peptide: H-PRPRPRPRPRHHHHHH-NH2
Protocol: as §1, with “96-well” for “In brief, dipeptide repeat proteins were synthesized and purified by Schafer-N(Copenhagen, Denmark): (GA)₁₅: H-CHHHHHH(GA)₁₅-OH; (GP)₁₅: H-C(GP)₁₅-OH; (GR)₁₅: H-C(GR)₁₅-OH; (PA)₁₅: H-C(PA)₁₅-OH; (PR)₁₅: H—C(PR)₁₅-OH. DPR protein peptides were then conjugated via a bifunctional linker (SMCC) to bovine serum albumin (BSA). 96-well”, “with” for “with BSA-coupled or -uncoupled”, “50” for “either 5 μg/ml or 20”
as §2

PR2: H-(PR)2HHHHHH-NH2 = target: T8, PR2: H-(PR)2HHHHHH-NH2; assay: as above
T8 peptide: H-PRPRHHHHHH-NH2
Protocol: as §1, with “96-well” for “In brief, dipeptide repeat proteins were synthesized and purified by Schafer-N(Copenhagen, Denmark): (GA)₁₅: H-CHHHHHH(GA)₁₅-OH; (GP)₁₅: H-C(GP)₁₅-OH; (GR)₁₅: H-C(GR)₁₅-OH; (PA)₁₅: H-C(PA)₁₅-OH; (PR)₁₅: H—C(PR)₁₅-OH. DPR protein peptides were then conjugated via a bifunctional linker (SMCC) to bovine serum albumin (BSA). 96-well”, “with” for “with BSA-coupled or -uncoupled”, “50” for “either 5 μg/ml or 20”
as §2

PR3: H-(PR)3HHHHHH-NH2 = target: T9, PR3: H-(PR)3HHHHHH-NH2; assay: as above
T9 peptide: H-PRPRPRHHHHHH-NH2
Protocol: as §1, with “96-well” for “In brief, dipeptide repeat proteins were synthesized and purified by Schafer-N(Copenhagen, Denmark): (GA)₁₅: H-CHHHHHH(GA)₁₅-OH; (GP)₁₅: H-C(GP)₁₅-OH; (GR)₁₅: H-C(GR)₁₅-OH; (PA)₁₅: H-C(PA)₁₅-OH; (PR)₁₅: H—C(PR)₁₅-OH. DPR protein peptides were then conjugated via a bifunctional linker (SMCC) to bovine serum albumin (BSA). 96-well”, “with” for “with BSA-coupled or -uncoupled”, “50” for “either 5 μg/ml or 20”
as §2

PR4: H-(PR)4HHHHHH-NH2 = target: T10, PR4: H-(PR)4HHHHHH-NH2; assay: as above
T10 peptide: H-PRPRPRPRHHHHHH-NH2
Protocol: as §1, with “96-well” for “In brief, dipeptide repeat proteins were synthesized and purified by Schafer-N(Copenhagen, Denmark): (GA)₁₅: H-CHHHHHH(GA)₁₅-OH; (GP)₁₅: H-C(GP)₁₅-OH; (GR)₁₅: H-C(GR)₁₅-OH; (PA)₁₅: H-C(PA)₁₅-OH; (PR)₁₅: H—C(PR)₁₅-OH. DPR protein peptides were then conjugated via a bifunctional linker (SMCC) to bovine serum albumin (BSA). 96-well”, “with” for “with BSA-coupled or -uncoupled”, “50” for “either 5 μg/ml or 20”
as §2

[4] = target: T11, BSA-coupled (PR)15 DPR protein peptide (bovine, conjugated via a bifunctional linker (SMCC) to bovine serum albumin); assay: indirect ELISA, BSA-coupled peptide coated, antibody titrated [also D00013 FIG. 3F]
T11 construct: also called BSA-(PR)15
T11 sequence (peptide, as listed by the source limits assumed, chain 1 of 2): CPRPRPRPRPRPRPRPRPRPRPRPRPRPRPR
T11 sequence (P02769 25-607 limits assumed, chain 2 of 2): as the sequence (P02769 25-607 limits assumed, chain 2 of 2) above
Protocol: as §1

T1 sequence (P02769 25-607 limits assumed): as the sequence (P02769 25-607 limits assumed, chain 2 of 2) above

B1: NI-308.45C2 (antibody, V domains shown)
VH: QLQLQESGPGLVKPSQILSLTCAISGDSVFSNSAAWNWIRQSPSRGLEWLGRTYYRSKWDNDYAPSVKSRISINPDTSKNQFSLQLNSVTPEDTAVYYCAREVAYCGGDCYSVSFDYWGQGTLVTVSS
VL: not shown
notes: Recombinant complete human IgG1, kappa
Q: B1 was tested. Which EC50 [1] did it give?
A: Its EC50 is 15.2 nM.

B2: NI-308.46E9 (antibody, V domains shown)
VH: QVQLQESGPGLVKPSETLSLTCTVSGASISGSTYYWGWIRQPPGKGLEYIGRIYYSGSTYYNPSLKSRATISVDTSKNQLSLTLSSVTAADTAVYYCVRPFYAGSGNSPFDYWGQGTLVTVSS
VL: CEIVLTQSPATVSVSPGERATLSCRASQSVSTNLAWYQQKPGQPPRLLIYGASTRATGIPARFSGSGSGAEFTLTISSLQSEDFVVYYCQQYNNWPPAFGGGTKVEIK
notes: as for B1
Q: How did the EC50 [2] turn out when B2 was run?
A: The EC50 was 12.1 nM.

B3: NI-308.4M1 (antibody, V domains shown)
VH: EVQLVETGGGVVQPGGSLRLSCEASGFTIGTYAMHWVRQFPGKGLDWVAVISFDGTTEYYTDAVKGRFTISRDNAKNTLYLQMNYLRGDDTAIYFCARDFTSSGETGSWTQVPDLWGQGTLVTVSS
VL: CEIVMTQSPATLSLSPGERATLSCRASQSVTKYLAWYQQKPGQAPRLLIYDVSYRAAGTPARFSGSGSGTDFTLTISSLEPEDFAVYYCHQRSSWPPVTFGGGTKVEIK
notes: as for B1
Q: Does B3 bind (PA3: H-(PA)3HHHHHH-NH2)?
A: Result: no binding (tested: about 4x10^5 pM (last point))

Q: Does B3 bind (PA4: H-(PA)4HHHHHH-NH2)?
A: Result: no binding (tested: about 4x10^5 pM (last point))

Q: Does B3 bind (PA2: H-(PA)2HHHHHH-NH2)?
A: Result: no binding (tested: about 4x10^5 pM (last point))

Q: And the EC50 [3]?
A: The EC50 was 0.14 nM.

B4: NI-308.24E11 (antibody, V domains shown)
VH: QVQLQESGPGLVKPSETLSLTCTVSTTSLRSYFWSWIRQPPGKGLEWIGYVYYSGSTIYNPSLKNRVTISIDTSKNQFSLNLRSVTAADTAMYFCARGVPAETDARDFPPYYFDHWGQGTLVTVSS
VL: CDIQLTQSPSSLSASVGNRITFTCQASQDIRYYLNWYQQKPGKAPKLLIYDVSNLDTGVPPRFSGSGSGTNFTFTISSLQPEDIAVYYCQQYEGLPVTFGGGTKVEIK
notes: as for B1
Q: Does B4 bind (PR5: H-(PR)5HHHHHH-NH2)?
A: Result: no binding (tested: about 4x10^5 pM (last point))

Q: Does B4 bind (PR2: H-(PR)2HHHHHH-NH2)?
A: Result: no binding (tested: about 4x10^5 pM (last point))

Q: Does B4 bind (PR3: H-(PR)3HHHHHH-NH2)?
A: Result: no binding (tested: about 4x10^5 pM (last point))

Q: Does B4 bind (PR4: H-(PR)4HHHHHH-NH2)?
A: Result: no binding (tested: about 4x10^5 pM (last point))

Q: What about the EC50 [4] of the same binder?
A: The EC50 was > 200 nM.

— patent publication US20200010567A1 (NEURIMMUNE, published 2020)
